Data on one molecule can be found in publication PMC5384220.

This assay has as its target T1, N-terminally Hexa-His-tagged KDM4A (residues 1–359) (human) (UniProt O75164).
T1 sequence: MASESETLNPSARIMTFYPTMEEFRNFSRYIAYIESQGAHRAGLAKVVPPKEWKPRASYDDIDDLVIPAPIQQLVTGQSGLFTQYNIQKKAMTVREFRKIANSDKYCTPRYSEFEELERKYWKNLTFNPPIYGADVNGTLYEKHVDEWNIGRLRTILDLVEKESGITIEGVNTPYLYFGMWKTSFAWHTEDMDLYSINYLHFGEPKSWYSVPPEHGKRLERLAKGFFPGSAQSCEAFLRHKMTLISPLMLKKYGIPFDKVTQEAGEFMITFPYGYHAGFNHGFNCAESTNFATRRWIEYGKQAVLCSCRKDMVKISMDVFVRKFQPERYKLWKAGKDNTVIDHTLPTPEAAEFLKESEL

B1: PolyR (Arg)9 peptide (peptide)
peptide: RRRRRRRRR
For the molecule B1, the IC50 of inhibition of demethylase activity (AlphaScreen method) stood at 40 nM.
